From US20240141072A1 (published 2024)

How the values were obtained:
[1] = biological target: DH6 anti-DLL3 trispecific protein; test: Octet BLI, DLL3-Fc on anti-human Fc tips, single 50 nM
Procedure: (§1) Using conditioned media containing known concentrations of anti-DLL3 trispecific proteins, the binding affinities of the anti-DLL3 trispecific proteins toward human and cynomolgus monkey DLL3 proteins were measured, using a method where the DLL3 proteins were expressed as human IgG1-Fc fusions and the measurements were carried out using an Octet instrument with anti-human Fc tips.

[2] = biological target: DH12 anti-DLL3 trispecific protein; test: as above
Procedure: as §1

[3] = biological target: DH84 anti-DLL3 trispecific protein; test: as above
Procedure: as §1

[4] = biological target: DH69 anti-DLL3 trispecific protein; test: as above
Procedure: as §1

[5] = biological target: DH17 anti-DLL3 trispecific protein; test: as above
Chain of DH17 anti-DLL3 trispecific protein (chain, as listed by the source): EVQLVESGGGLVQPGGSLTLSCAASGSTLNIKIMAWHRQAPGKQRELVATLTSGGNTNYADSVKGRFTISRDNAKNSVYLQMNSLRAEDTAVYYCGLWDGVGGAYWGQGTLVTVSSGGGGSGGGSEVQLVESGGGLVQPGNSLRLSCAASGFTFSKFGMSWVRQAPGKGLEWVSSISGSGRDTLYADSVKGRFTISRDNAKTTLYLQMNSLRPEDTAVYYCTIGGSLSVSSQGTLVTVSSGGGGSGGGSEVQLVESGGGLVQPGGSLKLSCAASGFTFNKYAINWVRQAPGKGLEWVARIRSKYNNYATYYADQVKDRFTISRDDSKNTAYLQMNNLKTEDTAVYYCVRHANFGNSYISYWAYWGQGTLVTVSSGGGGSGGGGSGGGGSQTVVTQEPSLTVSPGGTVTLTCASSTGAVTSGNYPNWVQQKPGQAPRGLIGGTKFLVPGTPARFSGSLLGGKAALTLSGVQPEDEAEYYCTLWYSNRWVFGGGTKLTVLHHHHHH
Procedure: as §1

[6] = biological target: DH67 anti-DLL3 trispecific protein; test: as above
Chain of DH67 anti-DLL3 trispecific protein (chain, as listed by the source): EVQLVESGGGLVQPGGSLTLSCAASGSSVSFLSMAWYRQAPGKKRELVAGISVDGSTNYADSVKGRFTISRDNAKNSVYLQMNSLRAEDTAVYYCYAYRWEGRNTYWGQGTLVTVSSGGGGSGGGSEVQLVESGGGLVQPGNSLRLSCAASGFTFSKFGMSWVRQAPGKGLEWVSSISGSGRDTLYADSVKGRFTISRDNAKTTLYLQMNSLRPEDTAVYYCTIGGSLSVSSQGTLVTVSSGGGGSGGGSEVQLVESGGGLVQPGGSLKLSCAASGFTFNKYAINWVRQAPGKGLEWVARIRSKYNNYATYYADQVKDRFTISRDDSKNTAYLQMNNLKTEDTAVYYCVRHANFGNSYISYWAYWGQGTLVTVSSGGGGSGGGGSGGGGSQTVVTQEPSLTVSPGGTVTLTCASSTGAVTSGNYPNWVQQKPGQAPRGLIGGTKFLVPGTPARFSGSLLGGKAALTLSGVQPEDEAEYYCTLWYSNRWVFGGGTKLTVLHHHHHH
Procedure: as §1

[7] = biological target: DH22 anti-DLL3 trispecific protein; test: as above
Procedure: as §1

[8] = biological target: DH43 anti-DLL3 trispecific protein; test: as above
Chain of DH43 anti-DLL3 trispecific protein (chain, as listed by the source): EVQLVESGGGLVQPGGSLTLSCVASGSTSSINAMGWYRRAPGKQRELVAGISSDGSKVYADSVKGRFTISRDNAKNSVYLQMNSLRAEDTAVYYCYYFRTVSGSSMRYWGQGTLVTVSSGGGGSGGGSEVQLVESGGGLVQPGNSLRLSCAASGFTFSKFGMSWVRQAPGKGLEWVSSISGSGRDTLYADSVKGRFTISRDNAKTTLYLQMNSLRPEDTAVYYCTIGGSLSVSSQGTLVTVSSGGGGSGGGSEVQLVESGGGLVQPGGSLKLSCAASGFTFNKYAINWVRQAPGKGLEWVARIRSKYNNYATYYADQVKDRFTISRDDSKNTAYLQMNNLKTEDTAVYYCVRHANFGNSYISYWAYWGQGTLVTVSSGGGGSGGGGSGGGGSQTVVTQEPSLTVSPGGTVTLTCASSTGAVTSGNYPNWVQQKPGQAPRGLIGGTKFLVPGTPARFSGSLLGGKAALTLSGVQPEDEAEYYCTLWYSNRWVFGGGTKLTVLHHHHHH
Procedure: as §1

[9] = biological target: DH51 anti-DLL3 trispecific protein; test: as above
Procedure: as §1

[10] = biological target: DH45 anti-DLL3 trispecific protein; test: as above
Procedure: as §1

[11] = biological target: DH58 anti-DLL3 trispecific protein; test: as above
Procedure: as §1

[12] = biological target: DH38 anti-DLL3 trispecific protein; test: as above
Procedure: as §1

[13] = biological target: DH27 anti-DLL3 trispecific protein; test: as above
Procedure: as §1

[14] = biological target: DH82 anti-DLL3 trispecific protein; test: as above
Procedure: as §1

[15] = biological target: DH83 anti-DLL3 trispecific protein; test: as above
Procedure: as §1

[16] = biological target: DH3 anti-DLL3 trispecific protein; test: as above
Chain of DH3 anti-DLL3 trispecific protein (chain, as listed by the source): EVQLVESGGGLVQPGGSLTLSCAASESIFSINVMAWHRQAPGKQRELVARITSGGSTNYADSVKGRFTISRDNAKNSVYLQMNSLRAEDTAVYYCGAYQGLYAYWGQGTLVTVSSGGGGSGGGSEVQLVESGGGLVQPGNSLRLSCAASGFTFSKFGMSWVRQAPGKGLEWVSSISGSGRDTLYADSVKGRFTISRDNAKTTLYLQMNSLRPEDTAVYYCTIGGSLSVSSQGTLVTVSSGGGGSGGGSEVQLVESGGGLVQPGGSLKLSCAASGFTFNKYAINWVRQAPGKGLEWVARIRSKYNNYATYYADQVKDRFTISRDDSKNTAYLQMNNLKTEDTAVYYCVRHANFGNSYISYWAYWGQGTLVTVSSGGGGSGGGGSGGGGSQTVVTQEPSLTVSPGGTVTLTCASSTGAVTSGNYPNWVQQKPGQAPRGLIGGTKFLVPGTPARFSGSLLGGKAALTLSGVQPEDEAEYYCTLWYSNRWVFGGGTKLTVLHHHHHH
Procedure: as §1

[17] = biological target: DH23 anti-DLL3 trispecific protein; test: as above
Procedure: as §1

[18] = biological target: DH11 anti-DLL3 trispecific protein; test: as above
Procedure: as §1

[19] = biological target: DH29 anti-DLL3 trispecific protein; test: as above
Procedure: as §1

[20] = biological target: DH80 anti-DLL3 trispecific protein; test: as above
Procedure: as §1

[21] = biological target: DH56 anti-DLL3 trispecific protein; test: as above
Procedure: as §1

[22] = biological target: DH5 anti-DLL3 trispecific protein; test: as above
Procedure: as §1

[23] = biological target: DH42 anti-DLL3 trispecific protein; test: as above
Chain of DH42 anti-DLL3 trispecific protein (chain, as listed by the source): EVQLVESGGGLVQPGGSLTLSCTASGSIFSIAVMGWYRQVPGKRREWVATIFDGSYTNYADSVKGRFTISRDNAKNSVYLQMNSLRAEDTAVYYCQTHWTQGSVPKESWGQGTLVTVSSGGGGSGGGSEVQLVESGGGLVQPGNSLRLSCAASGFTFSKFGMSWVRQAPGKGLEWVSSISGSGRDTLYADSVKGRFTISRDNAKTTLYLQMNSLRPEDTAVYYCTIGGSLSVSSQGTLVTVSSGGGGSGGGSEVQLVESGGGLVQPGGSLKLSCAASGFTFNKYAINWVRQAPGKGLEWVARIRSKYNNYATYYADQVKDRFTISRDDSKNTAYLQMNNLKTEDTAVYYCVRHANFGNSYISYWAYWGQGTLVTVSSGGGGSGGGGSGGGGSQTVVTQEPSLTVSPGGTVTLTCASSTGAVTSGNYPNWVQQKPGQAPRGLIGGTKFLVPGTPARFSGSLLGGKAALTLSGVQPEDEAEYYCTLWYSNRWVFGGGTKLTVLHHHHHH
Procedure: as §1

[24] = biological target: DH15 anti-DLL3 trispecific protein; test: as above
Procedure: as §1

[25] = biological target: DH92 anti-DLL3 trispecific protein; test: as above
Procedure: as §1

[26] = biological target: DH1 anti-DLL3 trispecific protein; test: as above
Procedure: as §1

[27] = biological target: DH2 anti-DLL3 trispecific protein; test: as above
Chain of DH2 anti-DLL3 trispecific protein (chain, as listed by the source): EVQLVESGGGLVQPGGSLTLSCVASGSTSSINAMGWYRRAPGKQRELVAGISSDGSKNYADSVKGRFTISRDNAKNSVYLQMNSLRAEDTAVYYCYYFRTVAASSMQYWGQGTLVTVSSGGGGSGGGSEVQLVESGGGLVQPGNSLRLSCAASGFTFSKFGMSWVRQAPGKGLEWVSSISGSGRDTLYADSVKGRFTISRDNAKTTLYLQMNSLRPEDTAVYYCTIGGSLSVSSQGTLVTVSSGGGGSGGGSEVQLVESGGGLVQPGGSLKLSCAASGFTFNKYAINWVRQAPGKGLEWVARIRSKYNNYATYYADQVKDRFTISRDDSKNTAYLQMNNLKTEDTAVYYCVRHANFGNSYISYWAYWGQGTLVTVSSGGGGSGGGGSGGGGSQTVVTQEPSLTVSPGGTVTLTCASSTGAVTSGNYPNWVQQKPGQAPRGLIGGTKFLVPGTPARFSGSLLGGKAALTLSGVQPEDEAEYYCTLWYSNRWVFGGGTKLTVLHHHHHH
Procedure: as §1

[28] = biological target: DH89 anti-DLL3 trispecific protein; test: as above
Chain of DH89 anti-DLL3 trispecific protein (chain, as listed by the source): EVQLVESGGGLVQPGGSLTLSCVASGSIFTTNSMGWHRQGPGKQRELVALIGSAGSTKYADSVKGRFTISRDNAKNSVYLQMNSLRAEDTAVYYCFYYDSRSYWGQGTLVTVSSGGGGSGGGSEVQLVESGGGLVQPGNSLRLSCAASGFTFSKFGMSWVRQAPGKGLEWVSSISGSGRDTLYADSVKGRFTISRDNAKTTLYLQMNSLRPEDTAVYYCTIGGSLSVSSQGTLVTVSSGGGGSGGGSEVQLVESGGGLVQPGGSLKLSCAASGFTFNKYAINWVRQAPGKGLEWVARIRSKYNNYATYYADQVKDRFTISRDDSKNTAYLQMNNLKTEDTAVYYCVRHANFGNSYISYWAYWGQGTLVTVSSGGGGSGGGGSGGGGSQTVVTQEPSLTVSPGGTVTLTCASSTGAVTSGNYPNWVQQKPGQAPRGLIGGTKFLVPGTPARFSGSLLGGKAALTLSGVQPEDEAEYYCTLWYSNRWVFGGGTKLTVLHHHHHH
Procedure: as §1

[29] = biological target: DH94 anti-DLL3 trispecific protein; test: as above
Procedure: as §1

[30] = biological target: DH70 anti-DLL3 trispecific protein; test: as above
Procedure: as §1

[31] = biological target: DH18 anti-DLL3 trispecific protein; test: as above
Procedure: as §1

[32] = biological target: DH61 anti-DLL3 trispecific protein; test: as above
Procedure: as §1

[33] = biological target: DH54 anti-DLL3 trispecific protein; test: as above
Procedure: as §1

[34] = biological target: DH10 anti-DLL3 trispecific protein; test: as above
Procedure: as §1

[35] = biological target: DH3 anti-DLL3 trispecific protein; test: Octet BLI, single 50 nM
Procedure: as §1

[36] = biological target: DH6 anti-DLL3 trispecific protein; test: Octet BLI, 60/20/6.67/2.22 nM
Procedure: (§2) Using the conditioned medium with known concentrations of the anti-DLL3 trispecific proteins, the binding affinities of the anti-DLL3 trispecific proteins toward human DLL3 protein were measured using a method where biotinylated version of human DLL3 protein were expressed as a human IgG1 fusion protein, and the binding affinity measurement was carried out in an Octet instrument with streptavidin tips.

[37] = biological target: DH43 anti-DLL3 trispecific protein; test: Octet BLI, 60/20/6.67/2.22 nM
Procedure: as §2

[38] = biological target: 53A05 anti-DLL3 trispecific protein; test: Octet BLI, streptavidin tips, single 50 nM
Procedure: as §2, with “proteins, the relative binding affinities” for “proteins, the binding affinities”

[39] = biological target: 41D07 anti-DLL3 trispecific protein; test: Octet BLI, streptavidin tips, single 50 nM
Procedure: as §2, with “proteins, the relative binding affinities” for “proteins, the binding affinities”

[40] = biological target: DH6 anti-DLL3 trispecific protein; test: Octet BLI, single 50 nM, four samples of conditioned medium
Procedure: as §2

[41] = biological target: DH43 anti-DLL3 trispecific protein; test: as above
Procedure: as §2

[42] = biological target: DH6 anti-DLL3 trispecific protein; test: Octet BLI, single 60 nM
[43] = biological target: DH43 anti-DLL3 trispecific protein; test: Octet BLI, single 60 nM
[44] = biological target: 51G10 anti-DLL3 trispecific protein (CHO expressed, purified) (biotinylated); test: Octet BLI, biotinylated trispecific on streptavidin tips
[45] = biological target: T1, 51G2 anti-DLL3 trispecific protein (CHO expressed, purified) (biotinylated); test: as above
T1 construct: also called 51G02
T1 sequence (chain, as listed by the source): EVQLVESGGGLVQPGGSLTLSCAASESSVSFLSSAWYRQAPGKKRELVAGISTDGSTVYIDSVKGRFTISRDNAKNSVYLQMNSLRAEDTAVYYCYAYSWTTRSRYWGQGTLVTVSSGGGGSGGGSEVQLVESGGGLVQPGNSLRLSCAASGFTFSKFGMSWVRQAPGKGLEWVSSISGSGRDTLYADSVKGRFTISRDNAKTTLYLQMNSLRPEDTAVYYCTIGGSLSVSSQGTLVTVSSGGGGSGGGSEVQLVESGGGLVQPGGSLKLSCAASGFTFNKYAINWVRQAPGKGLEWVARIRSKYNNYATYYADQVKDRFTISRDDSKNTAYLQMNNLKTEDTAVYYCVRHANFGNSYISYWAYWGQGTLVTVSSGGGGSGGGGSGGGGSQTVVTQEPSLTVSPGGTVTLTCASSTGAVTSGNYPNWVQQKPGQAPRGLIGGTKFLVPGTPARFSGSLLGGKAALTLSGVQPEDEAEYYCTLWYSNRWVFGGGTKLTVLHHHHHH

[46] = biological target: T2, 52C4 anti-DLL3 trispecific protein (CHO expressed, purified) (biotinylated); test: as above
T2 construct: also called 52C04

Chain of DH6 anti-DLL3 trispecific protein (chain, as listed by the source): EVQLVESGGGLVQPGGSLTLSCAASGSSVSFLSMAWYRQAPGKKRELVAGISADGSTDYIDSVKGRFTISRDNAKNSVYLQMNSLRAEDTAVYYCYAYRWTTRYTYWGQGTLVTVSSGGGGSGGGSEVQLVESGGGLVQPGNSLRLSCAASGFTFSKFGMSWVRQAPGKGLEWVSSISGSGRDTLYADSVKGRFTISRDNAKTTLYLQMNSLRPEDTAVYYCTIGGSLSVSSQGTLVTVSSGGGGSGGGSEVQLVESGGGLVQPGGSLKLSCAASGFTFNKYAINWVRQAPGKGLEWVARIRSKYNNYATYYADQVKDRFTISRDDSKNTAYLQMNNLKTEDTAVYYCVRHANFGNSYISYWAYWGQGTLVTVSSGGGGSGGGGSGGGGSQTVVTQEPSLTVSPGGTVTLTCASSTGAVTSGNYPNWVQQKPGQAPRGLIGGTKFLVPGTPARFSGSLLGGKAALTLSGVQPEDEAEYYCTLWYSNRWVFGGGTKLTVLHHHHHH

B1: human DLL3 protein expressed as human IgG1-Fc fusion (Fc fusion)
chain: AGVFELQIHSFGPGPGPGAPRSPCSARLPCRLFFRVCLKPGLSEEAAESPCALGAALSARGPVYTEQPGAPAPDLPLPDGLLQVPFRDAWPGTFSFIIETWREELGDQIGGPAWSLLARVAGRRRLAAGGPWARDIQRAGAWELRFSYRARCEPPAVGTACTRLCRPRSAPSRCGPGLRPCAPLEDECEAPLVCRAGCSPEHGFCEQPGECRCLEGWTGPLCTVPVSTSSCLSPRGPSSATTGCLVPGPGPCDGNPCANGGSCSETPRSFECTCPRGFYGLRCEVSGVTCADGPCFNGGLCVGGADPDSAYICHCPPGFQGSNCEKRVDRCSLQPCRNGGLCLDLGHALRCRCRAGFAGPRCEHDLDDCAGRACANGGTCVEGGGAHRCSCALGFGGRDCRERADPCAARPCAHGGRCYAHFSGLVCACAPGYMGARCEFPVHPDGASALPAAPPGLRPGDPQRYL
notes: also called huDLL3; not shown: human IgG1 Fc
**Q.** How did the Kd [1] turn out when B1 was run?
**A.** Its Kd is 6.1 nM.

**Q.** What about the Kd [2] of the same binder?
**A.** Its Kd is 1.3 nM.

**Q.** What about the Kd [3] of the same binder?
**A.** The Kd was 15.2 nM.

**Q.** What about the Kd [4] of the same binder?
**A.** Its Kd is 1.2 nM.

**Q.** What about the Kd [5] of the same binder?
**A.** The Kd was 7 nM.

**Q.** What about the Kd [6] of the same binder?
**A.** Its Kd is 8.4 nM.

**Q.** What about the Kd [7] of the same binder?
**A.** The Kd was 6.8 nM.

**Q.** What about the Kd [8] of the same binder?
**A.** The Kd was 4.3 nM.

**Q.** And the Kd [9]?
**A.** The Kd was 5.1 nM.

**Q.** And the Kd [10]?
**A.** Its Kd is 1.9 nM.

**Q.** What about the Kd [11] of the same binder?
**A.** Its Kd is 3.3 nM.

**Q.** And the Kd [12]?
**A.** Its Kd is 11.9 nM.

**Q.** And the Kd [13]?
**A.** Its Kd is 2.1 nM.

**Q.** And the Kd [14]?
**A.** Its Kd is 6.6 nM.

**Q.** And the Kd [15]?
**A.** The Kd was 4.7 nM.

**Q.** What about the Kd [16] of the same binder?
**A.** Its Kd is 41.9 nM.

**Q.** And the Kd [17]?
**A.** Its Kd is 9.9 nM.

**Q.** And the Kd [18]?
**A.** Its Kd is 5.3 nM.

**Q.** What about the Kd [19] of the same binder?
**A.** The Kd was 5.6 nM.

**Q.** What about the Kd [20] of the same binder?
**A.** Its Kd is 0.8 nM.

**Q.** What about the Kd [21] of the same binder?
**A.** The Kd was 8.1 nM.

**Q.** And the Kd [22]?
**A.** The Kd was 0.5 nM.

**Q.** What about the Kd [23] of the same binder?
**A.** The Kd was 4.3 nM.

**Q.** What about the Kd [24] of the same binder?
**A.** Its Kd is 17.4 nM.

**Q.** What about the Kd [25] of the same binder?
**A.** Its Kd is 18 nM.

**Q.** And the Kd [26]?
**A.** The Kd was 3.5 nM.

**Q.** And the Kd [27]?
**A.** The Kd was 6.5 nM.

**Q.** And the Kd [28]?
**A.** The Kd was 6.9 nM.

**Q.** What about the Kd [29] of the same binder?
**A.** The Kd was 2.6 nM.

**Q.** What about the Kd [30] of the same binder?
**A.** The Kd was 16.2 nM.

**Q.** What about the Kd [31] of the same binder?
**A.** The Kd was 1 nM.

**Q.** And the Kd [32]?
**A.** Its Kd is 10.6 nM.

**Q.** And the Kd [33]?
**A.** Its Kd is 20.6 nM.

**Q.** And the Kd [34]?
**A.** The Kd was 3.9 nM.

**Q.** And the Kd [35]?
**A.** Its Kd is 42 nM.

B2: biotinylated human DLL3 protein expressed as a human IgG1 fusion protein (Fc fusion, not shown: a dimerising Fc or GST)
chain: AGVFELQIHSFGPGPGPGAPRSPCSARLPCRLFFRVCLKPGLSEEAAESPCALGAALSARGPVYTEQPGAPAPDLPLPDGLLQVPFRDAWPGTFSFIIETWREELGDQIGGPAWSLLARVAGRRRLAAGGPWARDIQRAGAWELRFSYRARCEPPAVGTACTRLCRPRSAPSRCGPGLRPCAPLEDECEAPLVCRAGCSPEHGFCEQPGECRCLEGWTGPLCTVPVSTSSCLSPRGPSSATTGCLVPGPGPCDGNPCANGGSCSETPRSFECTCPRGFYGLRCEVSGVTCADGPCFNGGLCVGGADPDSAYICHCPPGFQGSNCEKRVDRCSLQPCRNGGLCLDLGHALRCRCRAGFAGPRCEHDLDDCAGRACANGGTCVEGGGAHRCSCALGFGGRDCRERADPCAARPCAHGGRCYAHFSGLVCACAPGYMGARCEFPVHPDGASALPAAPPGLRPGDPQRYL
modifications: biotinylated
**Q.** How did the Kd [36] turn out when B2 was run?
**A.** The Kd was 9 nM.

**Q.** What about the Kd [37] of the same binder?
**A.** The Kd was 8.9 nM.

**Q.** And the Kd [38]?
**A.** The Kd was 0.3 nM.

**Q.** What about the Kd [39] of the same binder?
**A.** Its Kd is 34 nM.

**Q.** And the Kd [40]?
**A.** Its Kd is 9.9 nM.

**Q.** And the Kd [41]?
**A.** The Kd was 7.7 nM.

B3: cynomolgus DLL3 (ligand)
chain: AGVFELQIHSFGPGPGGAPRSPYSARGPCRLFFRVCLKPGLSEEAAESPCALGAALSARGPVYTEQPEAPAPDLPLPNGLLQVPFRDAWPGTFSLIIETWREELGDQIGGPAWSLLARVTRRRRLAAGGPWAGDIQRAGAWELRFSYRARCELPAVGTACTRLCRPRSASRCGPGLRPCAPLEDECEAPPVCRAGCSLEHGFCEQPGECRCLEGWTGPLCMVPVSTSSCLGLRGPSSTTTGCLVPGPGPCDGNPCANGGSCSETPGSFECTCPRGFYGLRCEVSGVTCADGPCFNGGLCVGGADPDSAYICHCPPGFQGSNCEKRVDRCSLQPCRNGGLCLDLGHALRCRCRAGFAGPRCEHDLNDCAGRACANGGTCVEGGGAHRCSCALGFGGRDCRERADPCAARPCAHGGRCYAHFSGLVCACAPGYMGARCEFPVHPDGVSALPAAPPGLRPGDPQRYP
notes: also called cyDLL3
**Q.** For B3, which Kd [42] is on record?
**A.** The Kd was 10 nM.

**Q.** And the Kd [43]?
**A.** Its Kd is 8.5 nM.

**Q.** What about the Kd [44] of the same binder?
**A.** The Kd was 1.4 to 3.4 nM.

**Q.** And the Kd [45]?
**A.** The Kd was 1.4 to 3.4 nM.

B4: human DLL3 (Example 6) (ligand)
chain: AGVFELQIHSFGPGPGPGAPRSPCSARLPCRLFFRVCLKPGLSEEAAESPCALGAALSARGPVYTEQPGAPAPDLPLPDGLLQVPFRDAWPGTFSFIIETWREELGDQIGGPAWSLLARVAGRRRLAAGGPWARDIQRAGAWELRFSYRARCEPPAVGTACTRLCRPRSAPSRCGPGLRPCAPLEDECEAPLVCRAGCSPEHGFCEQPGECRCLEGWTGPLCTVPVSTSSCLSPRGPSSATTGCLVPGPGPCDGNPCANGGSCSETPRSFECTCPRGFYGLRCEVSGVTCADGPCFNGGLCVGGADPDSAYICHCPPGFQGSNCEKRVDRCSLQPCRNGGLCLDLGHALRCRCRAGFAGPRCEHDLDDCAGRACANGGTCVEGGGAHRCSCALGFGGRDCRERADPCAARPCAHGGRCYAHFSGLVCACAPGYMGARCEFPVHPDGASALPAAPPGLRPGDPQRYL
notes: also called huDLL3
**Q.** Which Kd [46] does the source give for B4 here?
**A.** The Kd was 2.2 nM.
